Assay results published in patent US20250313632A1.
Residue numbers refer to the chain shown, from its start.

Key:
[1] = target: human B7-H3 expressed on A375 tumor cells (human) (UniProt Q5ZPR3); assay: flow cytometry on A375 cells, MFI(647); unit from the axis Conc (nM); fit value of a flat control curve
[2] = target: human B7-H3 expressed on A375 tumor cells (human) (UniProt Q5ZPR3); assay: flow cytometry on A375 cells, MFI(PE); unit from the axis Conc (nM); fit value of a flat control curve
[3] = target: human B7-H3 expressed on A375 tumor cells (human) (UniProt Q5ZPR3); assay: as above; remark: listed apart in the source
[4] = target: human B7-H3 expressed on A375 tumor cells (human) (UniProt Q5ZPR3); assay: flow cytometry on A375.S2 cells, MFI(647); unit from the axis Conc (nM); fit value of a flat control curve
[5] = target: human B7-H3 expressed on A375 tumor cells (human) (UniProt Q5ZPR3); assay: flow cytometry on A375 cells, MFI(PE); unit from the axis Conc (nM); fit value of a flat control curve; remark: listed apart in the source
[6] = target: human B7-H3 expressed on A375 tumor cells (human) (UniProt Q5ZPR3); assay: flow cytometry on A375 cells, MFI(PE); unit from the axis Conc(nM); fit value of a flat control curve
[7] = target: human B7-H3 (4Ig) protein (his tag) (human) (UniProt Q5ZPR3); assay: SPR (Biacore T200), antibody captured on Protein A chip, B7-H3 injected, 1:1 model
[8] = target: human B7-H3 expressed on A375 tumor cells (human) (UniProt Q5ZPR3); assay: flow cytometry on A375 cells, MFI(647); unit from the axis Conc (nM)
[9] = target: human B7-H3 expressed on A375 tumor cells (human) (UniProt Q5ZPR3); assay: flow cytometry on A375.S2 cells, MFI(647); unit from the axis Conc (nM)
[10] = target: human B7-H3 expressed on A375 tumor cells (human) (UniProt Q5ZPR3); assay: flow cytometry on A375 cells, MFI(PE); unit from the axis Conc (nM)
[11] = target: human B7-H3 protein (human) (UniProt Q5ZPR3); assay: Octet (BLI) epitope binning on captured human B7-H3; competitor CA84D
[12] = target: human B7-H3 expressed on A375 tumor cells (human) (UniProt Q5ZPR3); assay: flow cytometry on A375 cells, MFI(PE); unit from the axis Conc (nM); remark: listed apart in the source
[13] = target: human B7-H3 expressed on A375 tumor cells (human) (UniProt Q5ZPR3); assay: as above; remark: listed apart in the source
[14] = target: human B7-H3 protein (human) (UniProt Q5ZPR3); assay: Octet (BLI) epitope binning on captured human B7-H3; competitor AHP06345
[15] = target: human B7-H3 expressed on A375 tumor cells (human) (UniProt Q5ZPR3); assay: flow cytometry on A375 cells, MFI(PE); unit from the axis Conc(nM)
[16] = target: human B7-H3 expressed on A375 tumor cells (human) (UniProt Q5ZPR3); assay: flow cytometry on A375 cells, MFI(PE); unit from the axis Conc (nM); remark: listed apart in the source
[17] = target: human B7-H3 expressed on A375 tumor cells (human) (UniProt Q5ZPR3); assay: as above; remark: listed apart in the source
[18] = target: human B7-H3 protein (human) (UniProt Q5ZPR3); assay: Octet (BLI) epitope binning on captured human B7-H3; competitor AHP05562
[19] = target: human B7-H3 expressed on A375 tumor cells (human) (UniProt Q5ZPR3); assay: flow cytometry on A375 cells, MFI(PE); unit from the axis Conc (nM); remark: listed apart in the source
[20] = target: human B7-H3 protein (human) (UniProt Q5ZPR3); assay: Octet (BLI) epitope binning on captured human B7-H3; competitor 72D1D11
[21] = target: human B7-H3 expressed on A375 tumor cells (human) (UniProt Q5ZPR3); assay: flow cytometry on A375 cells, MFI(647); unit from the axis Conc (nM); fit value of a flat curve
[22] = target: human B7-H3 protein (human) (UniProt Q5ZPR3); assay: Octet (BLI) epitope binning on captured human B7-H3; competitor AHP06345 (self)

In the case of hIgG1 (antibody), the EC50 [1] is reported as 0.066 nM, the EC50 [2] is reported as 0.036 µM and the EC50 [3] is reported as 0.0021 µM. It also gave an EC50 [4] of 0.044 nM and an EC50 [5] of 0.192 µM.

In the case of hIgG (antibody), the EC50 [6] is reported as 0.014 µM and the EC50 [3] is reported as 1970 µM.

B1: MGA017 (antibody, from a related filing, V domains shown)
VH: EVQLVESGGGLVKPGGSLRLSCAASGFTFSSYGMSWVRQAPGKGLEWVATINSGGSNTYYPDSLKGRFTISRDNAKNSLYLQMNSLRAEDTAVYYCARHDGGAMDYWGQGTTVTVSS
VL: DIQMTQSPSSLSASVGDRVTITCRASESIYSYLAWYQQKPGKAPKLLVYNTKTLPEGVPSRFSGSGSGTDFTLTISSLQPEDFATYYCQHHYGTPPWTFGQGTRLEIK
Molecule B1 has a Kd [7] of 0.00179 µM, a koff [7] of 0.00132 s⁻¹ and a kon [7] of 737000 M⁻¹ s⁻¹. For the same molecule, the EC50 [8] was 0.00041 µM, the EC50 [9] was 0.00037 µM and the EC50 [10] was 0.00022 µM. For the same molecule, the inhibition ratio [11] was 3.65%, the EC50 [12] was 0.00026 µM and the EC50 [13] was 0.00019 µM. The inhibition ratio [14] was -0.09%, the EC50 [15] was 0.00015 µM and the EC50 [16] was 0.0003 µM. It also gave an EC50 [17] of 0.00034 µM, an inhibition ratio [18] of 91.5% and an EC50 [19] of 0.00028 µM. It also gave an inhibition ratio [20] of 98.9%.

B2: 72D1D11-z3 (antibody, V domains shown)
VH: QVQLVQSGSELKKPGASVKVSCKASGYTFTNLGLNWVRQAPGQGLEWMGWINTAGGQPTYAEDFKGRFVFSLDTSVSTAYLQISSLKAEDTAVYYCARDDGYYYTMDYWGQGTTVTVSS
VL: DIVMTQSPLSLPVTPGEPASISCRSSQSLVHSNGKTYLHWYLQKPGQSPQLLIYKVSNRFSGVPDRFSGSGSGTDFTLKISRVEAEDVGVYYCSQSTHVPWTFGGGTKLEIK
B2 was tested, and the EC50 [8] was 0.00064 µM, the EC50 [10] was 0.0004 µM and the EC50 [16] was 0.00058 µM.

B3: 72D1D11-z3p6 (antibody, V domains shown)
VH: B2 VH with D100R
VL: B2 VL with G34A
Molecule B3 has an EC50 [21] of 20.9 µM.

B4: 72D1D11-z3p8 (antibody, V domains shown)
VH: B2 VH with D100A
VL: B2 VL with G34A
In the case of B4, the EC50 [21] is reported as 22.4 µM.

B5: 72D1D11-z3p7 (antibody, V domains shown)
VH: B2 VH with D100L
VL: B2 VL with G34A
B5 gave an EC50 [21] of 115 µM.

B6: 81C8A1-z3 (antibody, V domains shown)
VH: QVTLKESGPALVKPTQTLTLTCTFSGFSLSTSGMGVSWIRQPPGKALEWLAHIYWDDDRRYNPSLKSRLTISKDTSKNQVVLTMTNMDPVDTATYYCARSPYGSEAYWGQGTLVTVSS
VL: EIVLTQSPDFQSVTPKEKVTITCRASSSVSFIQWYQQKPDQSPKPWIYSPSNLASGVPSRFSGSGSGTDFTLTINSLEAEDAATYYCQQWSSYPWTFGQGTKVEIK
Work on B6 yielded an EC50 [12] of 0.00023 µM.

B7: 81C8A1-z8 (antibody, V domains shown)
VH: B6 VH with K73R
VL: B6 VL with T5S, F70Y
B7 gave an EC50 [12] of 0.00025 µM.

B8: 81C8A1-z4 (antibody, V domains shown)
VH: B6 VH
VL: B6 VL with T5S, F70Y
B8 gave an EC50 [12] of 0.00028 µM.

B9: 81C8A1-z7 (antibody, V domains shown)
VH: B6 VH with K73R
VL: B6 VL
B9 gave an EC50 [12] of 0.00039 µM.

B10: 312E1E2 (antibody, V domains shown)
VH: QVQLQQSGPELVRPGVSVKISCKGSGYTFTDYAMHWVKQSHAKSLEWIGIVSTHYGNTNYNQNFKGKATMTVDKSSSTVYMELARLTSEDSAIYYCARSEGLRLDWFAHWGQGTLVTVSA
VL: DIQMTQSPASLSASVGEIVTITCRASENIYSYLAWYQQKQGKSPHLLVYNAKTLAEGVPSRFSGSGSGTQFSLKISRLQPEDFGSYYCQNHYVFPFTFGSGTKLEIK
Work on B10 yielded an EC50 [9] of 0.00019 µM, an inhibition ratio [11] of -18.3% and an inhibition ratio [14] of 90%. The inhibition ratio [18] was -24.4% and the inhibition ratio [20] was -32.6%.

B11: AHP06345 (antibody, V domains shown)
VH: QVQLVQSGAEVKKPGESLRISCKGSGYSFTSYWISWVRQMPGKGLEWMGRIDPSDSYTNYSPSFQGHVTISADKSISTAYLQWSSLKASDTAMYYCARHTGYYGSGIGMDVWGQGTLVTVSS
VL: HVILTQPPSVSAAPGQKVTISCSGSSSNIGNNYVSWYRQLPGTAPKLLIYDNNQRPSGIPDRFSGSKSGTSATLGITGLQTGDEADYYCATWDSSLGVVVFGGRTKLTVL
B11 was tested, and the inhibition ratio [22] was 91.8%, the Kd [7] was 0.00147 µM and the koff [7] was 0.000254 s⁻¹. The kon [7] was 173000 M⁻¹ s⁻¹, the inhibition ratio [11] was -3.77% and the EC50 [15] was 0.0027 µM. For the same molecule, the inhibition ratio [18] was -6.36%.

B12: AHP05564 (antibody, V domains shown)
VH: EVQLVETGGGVVQPGRSLRLSCAASGFTFSSSGMHWVRQAPGKGLEWVAVISYDVTNKYYVDSVKGRFTISRDNSENTLYLQMNSLRAEDTGVYYCVRDGGPRWLGWYFDLWGRGTLVTVSS
VL: NIQMTQSPSSQSASVGDRVTITCRANQAIANSLAWYQQKPGKAPKLLLFGTSLLHSGVPSRFSGSGSGTEYTLTISSLQPDDFGTYYCQQYFSFPRTFGQGTQVDVY
For B12, the Kd [7] was 0.00052 µM, the koff [7] was 0.000862 s⁻¹ and the kon [7] was 1.66e+06 M⁻¹ s⁻¹. For the same molecule, the inhibition ratio [11] was 80.1%, the inhibition ratio [14] was 5.92% and the EC50 [15] was 0.0024 µM. The inhibition ratio [18] was -3.53%.

B13: 81C8A1 (antibody, V domains shown)
VH: QVTLKESGPGILQPSQTLSLTCSFSGFSLSTSGMGVSWIRQPPGKGLEWLAHIYWDDDRRYNPSLKSRLTISRDTSRNQVFLQITTVDTADTATYYCARSPYGSEAYWGQGTLVIVSA
VL: QIVLSQSPTILSAFPGEKVTMTCRASSSVSFIQWYQQKSGSSPKPWIYSPSNLASGVPTRFSGSGSGTSYSLTIGRVEAEDAATYYCQQWSSYPWTFGGGTKVEIK
With B13 the Kd [7] was 0.000196 µM, the koff [7] was 0.000111 s⁻¹ and the kon [7] was 567000 M⁻¹ s⁻¹. The EC50 [10] was 0.00017 µM, the inhibition ratio [11] was -6.3% and the EC50 [12] was 0.00025 µM. For the same molecule, the inhibition ratio [14] was -12.1%, the inhibition ratio [18] was 90.6% and the inhibition ratio [20] was 95.4%.

B14: 429H9F10 (antibody, V domains shown)
VH: QIQLVQSGPELKKPGETVKISCKASGYTFTYYGLNWVKQAPGKGLRWMGWINTSSGVPTYADDFKGRFAISLESSASTVFLEISNLKNEDTAAYFCAKDDGYFYTMDHWGQGTSVTVSS
VL: DIVMTQPPLSLPVSLGDQASISCRSSQSLVHNNGKTYLHWYLQKPGQSPKLLIYKVSNRFSGVPDRFSGSGSGTDFTLKISRVETEDLGVYFCSQSTQVPWTFGGGTKLEIK
In the case of B14, the EC50 [9] is reported as 0.0007 µM, the inhibition ratio [11] is reported as -8% and the inhibition ratio [14] is reported as -11.5%. For the same molecule, the inhibition ratio [18] was -22.4% and the inhibition ratio [20] was 98.9%.

B15: 72D1D11-p2 (antibody, V domains shown)
VH: QIQLVQSGPELKKPGETVKISCKASGYTFTNLGLNWVKQAPGKGLKWMGWINTAGGQPTYAEDFKGRCAFSLETSASTAYLQINNLKNEDTATYFCARDDGYYYTMDYWGQGTSVTVSS
VL: B14 VL with P7T, N32S, N33Q, T85A, Q98H
For B15, the EC50 [17] was 0.00054 µM.

B16: 72D1D11-p1 (antibody, V domains shown)
VH: B15 VH
VL: B14 VL with P7T, N32S, G34A, T85A, Q98H
In the case of B16, the EC50 [17] is reported as 0.00049 µM.
